T1: Nma-Pro-Lys-Pro-Leu-Ala-Nva-Trp-Lys(DNP)-NH2
T1 chain: PKPLAXWK

T2: MOCAc-Arg-Pro-Lys-Pro-Tyr-Ala-Nva-Trp-Met-Lys(DNP)-NH2
T2 chain: RPKPYAXWMK

B1: recombinant human ADAM protein (metalloprotease region and disintegrin region expressed in Escherichia coli from plasmid pMDH) (protein)
chain: VQEHEKYIEYYLVLDNGEFKRYNENQDEIRKRVFEMANYVNMLYKKLNTHVALVGMEIWTDKDKIKITPNASFTLENFSKWRGSVLSRRKRHDIAQLITATELAGTTVGLAFMSTMCSPYSVGVVQDHSDNLLRVAGTMAHEMGHNFGMFHDDYSCKCPSTICVMDKALSFYIPTDFSSCSRLSYDKFFEDKLSNCLFNAPLPTDIISTPICGNQLVEMGEDCDCGTSEECTNICCDAKTCKIKATFQCALGECCEKCQFKKAGMVCRPAKDECDLPEMCNGKSGNCPDDRFQVNGF

What was measured:
[1] = molecular target: recombinant human ADAM protein (metalloprotease region and disintegrin region expressed in Escherichia coli from plasmid pMDH) (human) (UniProt Q9UKQ2); experiment: cell-based or functional assay
[2] = molecular target: T1, Nma-Pro-Lys-Pro-Leu-Ala-Nva-Trp-Lys(DNP) …
[3] = molecular target: T2, MOCAc-Arg-Pro-Lys-Pro-Tyr-Ala-Nva-Trp-Me …

Row | Molecule | IC50 value (concentration of a test compound which 50% inhibits the protease activity) [1] [µM] | fluorescent intensity (excitation 340 nm, measuring 450 nm) after 2 hours at 37 C [2] | fluorescent intensity (excitation 328 nm, 393 nm) after 22 hours at 37 C [3]
1 | N-CBZ-Pro-Leu-Gly-hydroxamate (Sigma C8537) (peptide) | 100 | – | –
2 | B1 | – | the fluorescent intensity in the case of addition of the enzyme solution was 180 | the fluorescent intensity of 70 was shown when the protein was added

Source: US20040132157A1
